Reference: the DeepSol protein solubility set

Assay: soluble on expression in E. coli; label from the status in PepcDB or PDB records

Row | Sequence | soluble on expression in E. coli
1 | MYGTEQIISGTIIAGPEILPIEGYICVKNGIITEIGEERTNSKNIIAPCFVNAHTHLGDSVCKDPVLGKTSGFRVQRDLDSLVKPPDGLKHRILRETPYKTLVGHIKRSLLDMIDTGTCAFADFREGGFLGVAALNKALEGLELRSLIFGRPAEPDLPLQVVLSEVRRILLRSDGLGMSGANDLDMNLLQEITACTRERKKLFAIHAGEKNRSDIEKALSLEPDLLIHLTHAGKKDLDEIAQAKIPVVVCPRSNFVTGAGMAPIAEMLEAGIRVAAGTDNVMLNSVNMFAEMEFMSKIFSIDDRQVFKICTLNGSFVMGPDSMCSIEKGNKANLMILNGDSNNLAGIQDPVGGITKRARPDDILAVLHS | not soluble
2 | MAHHHHHHMGTYFSKDLQECLREEKRNLNRSIRELEREIFKMENEKKQIEKNIRIHAKKNDITLVRTLAKDLVKIKQNVIKYNKIKSHLLSMKIKLQSVKSSEQLNKSLCDINNIIKRVNKYIQVKNINNSIYEFQKQNNEVSIKEDMIDDLFDTLNYDIDMIQEEDEIVSKVLDELGIQLNSKLEQIPTIKQTENEQLDNVNISKIEDRINNLKKM | soluble
3 | MGSDKIHHHHHHMREEAPSRAQRVIDNNDILFQCVRPYQKNNYIHRILNTSNQQWVASTGYAQIRTTELPNYIYHLLNTDEFNRKVMVRCTGSSYPAINSEDLATIHLYYTPDKKEQLKISRLLDLLDKRIATQNKIIEKLQSLIKGIAQHCIKESTSGNTYVKLGDICQITTGKLDANAQVDNGIYPFFTCAEQPFKIDSFAFDTEALLISGNGANLGYINYYKGKFNAYQRTVSIR | not soluble
4 | MNFDVAIIGGGLAGLTCAIALQQRGKRCVIINNGQAAIDFASGSLDLLSRMPSTTYGENRAVENLKENITALRNELPAHPYSLLGAEKVLAKAQDFERLANELHLDLIGSTEKNHWRVTGLGSLRGAWLSPNSVPTVQGNEPFPHKRIAVLGIEGYHDFQPQLLAANLVLNPQFEHCEVTSGFLNIPQLDELRKNAREFRSVNISQLLEHKLAFKDLVKEIIESAQGAEAVFLPACFGLENQEFMTALRDATKLALFELPTLPPSLLGMRQRIQLRHKFESLGGLMINGDSALNATFEGNQVRCINTRLLEDEEITADNFVLASGSFFSKGLISEFDKIYEPVFESDIIGVEGFNNKDRFTWTAHRFAHPQPYQSAGVAINAQCQVKKCGQFLTNLYAVGNVIGGFNALELGCGSGVAVVTALAVADEILAKLEHHHHHH | soluble
5 | MGSDKIHHHHHHMNYTQGSLFENIENIPLAGRMRPRNLSDYIGQEHILEKGKALRNMLEKDSITSMILWGPPGVGKTTLAMIIASTTKCNFVEFSAATSGIKEIKDIMIKAEKDRLFGIRTLLFIDEIHRFNKSQQDTFLPHVEKGDIILIGATTENPSFEVNSALLSRCRVFVLKPLSNNDIVKLLKNALTDTRGFKNKNIQISEDLLTLIAVYSNGDARTALNVLEMAVLSSKLEHGVVTINKGILEDCMQNKALIYDKNGEEHYNLISALHKSMRNSDVDAAIYWLARMLEGGEDPLYIARRLIRFSSEDIGVADTNALNVTVNVYNSCHYIGMPECSVNLTEAVVYLSLAPKSNSIYMAYEKAKKDAKETLASGVPLHLRNAPTKLMSDLGYSKGYKYAHDFDNKVVDMQCLPDNLKDEKYYFPTTEGREKLFKERLHYIKKKKHTVNKSI | not soluble
6 | MPNSSIQIWLQRQIALRTFPPNREDWYVKNGFGNSEMSLEERFASFVEAIRQEDSPYHEQLSGIDFQRFEIEVTLANQKTCMTEVIGFQNNSNQSSSTPNEKFKAVGKGKHVIYFTGIGTQYQDCLIDIAKAVQITGAHYYAFEYPGMRKLGGEVLEVNDMVNTGIALANTLLEKGISIDDILFQGDSFGAAVAKKVSDQFKLQSNVTVRCILNNTFSTFQAAVEGNLGAFSTLRYTVRPLLRYTGWDIRPGEGYGQDTPYQIHVNHTGDLTLGAGHATLAESIESNSQLEHFVDPCPEEYRIKRDIYKQWHWASLSEQGITFLETKYGRNSDGQLDTHLADLYLLKYDTGLGVYESFICKYLEDSNDYIASHPQKLSLDELPRPLESETVSLRQLIVSVLPSRPSIAGFFSRSTPVIEEVETEKQEQKSIELK | soluble
7 | MGSDKIHHHHHHMHTCPRCDSKKGEVMSKSPVEGAWEVYQCQTCFFTWRSCEPESITNPEKYNPAFKIDPKETETAIEVPAVPEPKGLIRVNCMSDRLFELLDGSCLNEKQHEAFVLQTVSEDGWPHAAMISAGEIIALSRTDIRIALWKNTMTSANILRTGKAQFTAWWKGAAYYVKLECAPLPPLKDAEYERDRFSCRIVSVKEDVAKYADLTSGVRIQLHSPEEVLSRWKKTLEDLKR | not soluble
